# Molecular target: integrin α5β1 (in human FFPE glioblastoma sections) (human, UniProt P08648;P05556 42-1049;21-798)
# Experiment: aptahistofluorescence; FFPE GBM, 1 or 2 µM aptamer; frozen sections too low to detect; Flow cytometry: 300,000 cells detached with 0.2 M EDTA, 30 min with Cy5-aptamer; tissue: selection buffer, 2% BSA +/- 100 µg/mL yeast tRNA block, 1 h on ice; aptamers denatured at 95 °C 3 min then ice 5 min; buffer composition, salt and pH not given in material
# Conditions: protein: native; copies: 1;1; label: 3'-Cy5
# Sequence of integrin α5β1 (in human FFPE glioblastoma sections) (P08648 42-1049, chain 1 of 2): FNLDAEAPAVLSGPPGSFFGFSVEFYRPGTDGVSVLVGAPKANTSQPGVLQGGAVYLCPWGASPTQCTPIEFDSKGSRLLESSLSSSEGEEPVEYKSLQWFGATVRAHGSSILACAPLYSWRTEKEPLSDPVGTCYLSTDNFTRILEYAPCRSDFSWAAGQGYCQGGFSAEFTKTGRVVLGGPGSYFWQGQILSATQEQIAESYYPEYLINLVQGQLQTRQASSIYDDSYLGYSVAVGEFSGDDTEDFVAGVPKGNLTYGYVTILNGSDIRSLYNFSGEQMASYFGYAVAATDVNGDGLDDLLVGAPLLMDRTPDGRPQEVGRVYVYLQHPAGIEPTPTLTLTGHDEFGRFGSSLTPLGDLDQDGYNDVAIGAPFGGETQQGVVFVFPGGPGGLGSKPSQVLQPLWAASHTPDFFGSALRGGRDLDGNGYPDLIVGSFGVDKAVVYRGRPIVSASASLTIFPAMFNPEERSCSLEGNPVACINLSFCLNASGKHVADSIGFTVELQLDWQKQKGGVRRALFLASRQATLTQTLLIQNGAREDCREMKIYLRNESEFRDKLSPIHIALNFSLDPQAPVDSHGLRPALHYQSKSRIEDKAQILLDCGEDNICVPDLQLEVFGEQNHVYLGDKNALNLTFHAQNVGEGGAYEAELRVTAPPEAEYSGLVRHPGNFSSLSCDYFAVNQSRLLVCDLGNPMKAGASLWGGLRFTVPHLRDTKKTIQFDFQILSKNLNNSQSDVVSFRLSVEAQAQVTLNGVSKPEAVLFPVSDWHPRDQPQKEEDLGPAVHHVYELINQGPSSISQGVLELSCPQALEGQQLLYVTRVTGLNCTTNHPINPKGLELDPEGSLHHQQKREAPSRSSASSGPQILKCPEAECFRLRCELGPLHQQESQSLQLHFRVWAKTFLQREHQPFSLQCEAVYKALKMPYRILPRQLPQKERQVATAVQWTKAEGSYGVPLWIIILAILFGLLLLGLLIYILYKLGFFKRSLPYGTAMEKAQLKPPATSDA
# Sequence of integrin α5β1 (in human FFPE glioblastoma sections) (P05556 21-798, chain 2 of 2): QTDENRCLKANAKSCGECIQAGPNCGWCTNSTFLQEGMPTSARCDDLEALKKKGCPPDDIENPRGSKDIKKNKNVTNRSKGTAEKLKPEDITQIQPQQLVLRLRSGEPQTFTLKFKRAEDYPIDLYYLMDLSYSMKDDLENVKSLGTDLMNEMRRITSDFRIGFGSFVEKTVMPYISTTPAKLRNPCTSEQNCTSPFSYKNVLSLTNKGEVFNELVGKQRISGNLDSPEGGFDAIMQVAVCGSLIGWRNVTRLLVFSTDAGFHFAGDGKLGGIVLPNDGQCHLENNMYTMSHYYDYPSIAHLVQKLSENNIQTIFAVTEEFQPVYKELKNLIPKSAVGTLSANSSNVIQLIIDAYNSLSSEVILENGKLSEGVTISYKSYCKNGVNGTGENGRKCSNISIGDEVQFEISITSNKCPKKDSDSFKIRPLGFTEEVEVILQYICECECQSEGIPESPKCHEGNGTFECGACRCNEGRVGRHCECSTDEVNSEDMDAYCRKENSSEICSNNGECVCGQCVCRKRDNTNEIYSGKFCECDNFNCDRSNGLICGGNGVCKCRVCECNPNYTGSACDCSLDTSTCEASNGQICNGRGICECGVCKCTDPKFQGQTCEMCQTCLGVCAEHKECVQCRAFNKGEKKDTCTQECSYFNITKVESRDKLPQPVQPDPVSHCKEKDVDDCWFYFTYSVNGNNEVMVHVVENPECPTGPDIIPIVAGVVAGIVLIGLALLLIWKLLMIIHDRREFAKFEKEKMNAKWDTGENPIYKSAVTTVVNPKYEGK
binder,measurement,value
"H02-Cy5 (XNA, 2'-fluoro pyrimidines (2'F-RNA)) RNA: GGUUACCAGCCUUCACUGCGGACGGACAGAGAGUGCAACCUGCCGUGCCGCACCACGGUCGGUCACAC",binding result,binds
